Laboratory results reported in article PMC2671562, “Structural and Functional Analyses of PAS Domain Interactions of the Clock Proteins Drosophila PERIOD and Mouse PERIOD2” (PLoS Biology, 2009).

Molecular target: the molecule itself
Experiment: AUC; sedimentation equilibrium, interference optics, 10 °C, 25 mM HEPES pH 7.7, 100 mM NaCl, 2 mM DTE; four starting concentrations from stocks of 0.8–2 mg/ml; dimer to monomers, K D = 1/K A

Row | Protein | Kd [nM]
1 | mouse PERIOD2 fragment mPER2[128–473], wild-type (domain or fragment, UniProt O54943 128-473, looked up, also called N-terminally extended PAS domain fragment) GKASTLATLKYALRSVKQVKANEEYYQLLMSSESQPCSVDVPSYSMEQVEGITSEYIVKNADMFAVAVSLVSGKILYISNQVASIFHCKKDAFSDAKFVEFLAPHDVSVFHSYTTPYKLPPWSVCSGLDSFTQECMEEKSFFCRVSVGKHHENEIRYQPFRMTPYLVKVQEQQGAESQLCCLLLAERVHSGYEAPRIPPEKRIFTTTHTPNCLFQAVDERAVPLLGYLPQDLIETPVLVQLHPSDRPLMLAIHKKILQAGGQPFDYSPIRFRTRNGEYITLDTSWSSFINPWSRKISFIIGRHKVRVGPLNEDVFAAPPCPEEKTPHPSVQELTEQIHRLLMQPVP | 2250
2 | Drosophila PERIOD fragment dPER[232–599], wild-type (domain or fragment, GST fusion from pGEX-6P2, GST removed with PreScission protease) not shown | 200
3 | dPER[232–599] W482E (domain or fragment, also called dPER(W482E)) not shown | 3700
4 | mouse PERIOD2 fragment mPER2[170–473] (domain or fragment, two additional N-terminal residues (Gly168 and Ser169) seen in molecule 1 of the crystal, cloning artefacts; GST fusion from pGEX-6P2, GST removed with PreScission protease; also called crystallized mPER2 fragment) GSSYSMEQVEGITSEYIVKNADMFAVAVSLVSGKILYISNQVASIFHCKKDAFSDAKFVEFLAPHDVSVFHSYTTPYKLPPWSVCSGLDSFTQECMEEKSFFCRVSVGKHHENEIRYQPFRMTPYLVKVQEQQGAESQLCCLLLAERVHSGYEAPRIPPEKRIFTTTHTPNCLFQAVDERAVPLLGYLPQDLIETPVLVQLHPSDRPLMLAIHKKILQAGGQPFDYSPIRFRTRNGEYITLDTSWSSFINPWSRKISFIIGRHKVRVGPLNEDVFAAPPCPEEKTPHPSVQELTEQIHRLLMQPVP | 1340
5 | dPER[232–599] M560D (domain or fragment, also called dPER(M560D)) not shown | 7140
